Assay results as given in article PMC3166162, “A Dual Binding Mode for RhoGTPases in Plexin Signalling” (PLoS Biology, 2011).

Assays:
[1] = molecular target: Plexin-B1_(cyto) (entire cytoplasmic domain of human Plexin-B1, residues 1511-2135) (human) (UniProt O43157); assay: crystal structure; Plexin-B1_(cyto) and Rac1* mixed 1:1.2; 1 M Li2SO4, 0.5 M ammonium sulphate, 0.1 M citrate pH 5.6; 4.4 Å; three complexes in the asymmetric unit
[2] = molecular target: Plexin-B1_(cyto) Thr1920Glu (human, UniProt O43157-1 1511-2135, Thr1920Glu, biotin, added enzymatically within the engineered C-terminal tag); assay: SPR
Target sequence in this assay (O43157 1511-2135 T1920E): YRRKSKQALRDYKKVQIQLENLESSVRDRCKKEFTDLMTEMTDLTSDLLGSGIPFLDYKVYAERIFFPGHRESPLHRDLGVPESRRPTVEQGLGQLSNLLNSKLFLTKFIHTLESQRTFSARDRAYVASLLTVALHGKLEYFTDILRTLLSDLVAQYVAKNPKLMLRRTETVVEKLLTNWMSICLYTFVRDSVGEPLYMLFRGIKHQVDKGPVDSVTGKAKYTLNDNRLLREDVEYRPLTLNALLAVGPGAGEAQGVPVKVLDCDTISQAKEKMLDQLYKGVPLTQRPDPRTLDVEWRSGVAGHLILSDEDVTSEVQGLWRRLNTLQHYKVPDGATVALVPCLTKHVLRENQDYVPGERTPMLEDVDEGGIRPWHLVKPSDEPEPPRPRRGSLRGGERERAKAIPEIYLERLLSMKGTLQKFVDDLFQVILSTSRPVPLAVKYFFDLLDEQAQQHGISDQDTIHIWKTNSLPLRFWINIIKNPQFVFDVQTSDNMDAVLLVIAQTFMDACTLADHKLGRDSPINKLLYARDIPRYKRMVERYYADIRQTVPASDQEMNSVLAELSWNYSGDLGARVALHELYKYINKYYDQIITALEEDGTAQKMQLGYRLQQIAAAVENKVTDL

[3] = molecular target: Plexin-B1_(cyto) Arg1921Ala (human, UniProt O43157-1 1511-2135, Arg1921Ala, biotin, added enzymatically within the engineered C-terminal tag); assay: SPR
Target sequence in this assay (O43157 1511-2135 R1921A): as the sequence (O43157 1511-2135 T1920E) above, with E410T, R411A counted along it

[4] = molecular target: Plexin-B1_(cyto) Leu2036Arg (human, UniProt O43157-1 1511-2135, Leu2036Arg, biotin, added enzymatically within the engineered C-terminal tag); assay: SPR
Target sequence in this assay (O43157 1511-2135 L2036R): as the sequence (O43157 1511-2135 T1920E) above, with E410T, L526R counted along it

Plexin-B1Δ2 Leu1815Glu [5] = molecular target: Plexin-B1Δ2 Leu1815Glu (human, UniProt O43157-1 1543-2135, Leu1815Glu, biotin, added enzymatically within the engineered C-terminal tag); assay: SPR; surface 5,000 RU
Target sequence in this assay (O43157 1543-2135 L1815E): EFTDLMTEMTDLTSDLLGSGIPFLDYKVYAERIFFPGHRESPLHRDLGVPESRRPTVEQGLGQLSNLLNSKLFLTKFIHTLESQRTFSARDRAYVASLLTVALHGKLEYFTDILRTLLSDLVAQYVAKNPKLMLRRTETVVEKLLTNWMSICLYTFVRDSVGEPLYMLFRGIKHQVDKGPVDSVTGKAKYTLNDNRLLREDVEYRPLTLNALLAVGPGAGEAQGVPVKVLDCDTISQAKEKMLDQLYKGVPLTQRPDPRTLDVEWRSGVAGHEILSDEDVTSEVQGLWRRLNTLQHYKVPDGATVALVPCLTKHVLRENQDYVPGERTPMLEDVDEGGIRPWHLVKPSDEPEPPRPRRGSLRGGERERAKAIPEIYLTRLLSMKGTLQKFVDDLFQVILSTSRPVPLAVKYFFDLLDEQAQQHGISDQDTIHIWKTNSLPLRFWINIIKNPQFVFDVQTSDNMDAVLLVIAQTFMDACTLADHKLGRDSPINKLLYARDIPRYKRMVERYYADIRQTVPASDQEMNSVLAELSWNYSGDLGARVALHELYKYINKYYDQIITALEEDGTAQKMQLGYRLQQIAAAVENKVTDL

Plexin-B1Δ2 Leu1815Glu [6] = molecular target: T1, Plexin-B1Δ2 Leu1815Glu (human, UniProt O43157-1 1543-2135, Leu1815Glu, biotin, added enzymatically within the engineered C-terminal tag); assay: SPR; as a1, high coupling density: 5,000 RU of the plexin construct loaded on the chip; RhoGTPase 120 nM to 2,000 µM; conditions: both partners purified
T1 construct: human Plexin-B1, cytoplasmic region lacking the N-terminal helix, residues 1543-2135; also called site A Plexin-B1Δ2 mutant Leu1815Glu^Plex; source: HEK 293T cells, transfected, purified; not shown: engineered tag for enzymatic biotinylation, C-terminal, kept
T1 sequence (O43157 1543-2135 L1815E): as above

[7] = molecular target: T2, Plexin-B1_(cyto), wild type, biotinylated within an engineered C-terminal tag for SPR (human, UniProt O43157-1 1511-2135, biotin, added enzymatically within the engineered C-terminal tag); assay: SPR; Biacore T100, 25°C, standard buffer with 0.05% (v/v) Tween 20; biotinylated plexin constructs on streptavidin surfaces (500-5,000 RU); RhoGTPase injected, 120 nM to 500 µM; equilibrium responses fitted to a 1:1 Langmuir model; conditions: both partners purified
T2 construct: human Plexin-B1, cytoplasmic region, residues 1511-2135; also called Plexin-B1cyto WT; full-length Plexin-B1_(cyto); source: purified; mutant constructs for SPR: HEK 293T; not shown: engineered tag for enzymatic biotinylation, C-terminal, kept
T2 sequence (O43157 1511-2135, stated change not applied): as the sequence (O43157 1511-2135 T1920E) above, with E410T counted along it

[8] = molecular target: T3, Plexin-B1_(cyto) Thr1920Glu (human, UniProt O43157-1 1511-2135, Thr1920Glu, biotin, added enzymatically within the engineered C-terminal tag); assay: as above; conditions: both partners purified
T3 construct: human Plexin-B1, cytoplasmic region, residues 1511-2135; also called Thr1920Glu^Plex; site B mutant; source: HEK 293T cells, transfected, purified; not shown: engineered tag for enzymatic biotinylation, C-terminal, kept
T3 sequence (O43157 1511-2135 T1920E): as the sequence (O43157 1511-2135 T1920E) above

[9] = molecular target: T4, Plexin-B1_(cyto) Arg1921Ala (human, UniProt O43157-1 1511-2135, Arg1921Ala, biotin, added enzymatically within the engineered C-terminal tag); assay: as above; conditions: both partners purified
T4 construct: human Plexin-B1, cytoplasmic region, residues 1511-2135; also called Arg1921Ala^Plex; site B mutant; source: HEK 293T cells, transfected, purified; not shown: engineered tag for enzymatic biotinylation, C-terminal, kept
T4 sequence (O43157 1511-2135 R1921A): as the sequence (O43157 1511-2135 T1920E) above, with E410T, R411A counted along it

[10] = molecular target: T5, Plexin-B1_(cyto) Leu2036Arg (human, UniProt O43157-1 1511-2135, Leu2036Arg, biotin, added enzymatically within the engineered C-terminal tag); assay: as above; conditions: both partners purified
T5 construct: human Plexin-B1, cytoplasmic region, residues 1511-2135; also called Leu2036Arg^Plex; site B mutant; source: HEK 293T cells, transfected, purified; not shown: engineered tag for enzymatic biotinylation, C-terminal, kept
T5 sequence (O43157 1511-2135 L2036R): as the sequence (O43157 1511-2135 T1920E) above, with E410T, L526R counted along it

stoichiometry N [1]	Kd [2] [µM]	Kd [3] [µM]	Kd [4] [µM]	Kd (Plexin-B1Δ2 Leu1815Glu [5]) [µM]	binding result (Plexin-B1Δ2 Leu1815Glu [6])	Kd [7] [µM]	binding result [8]	binding result [9]	binding result [10]	Molecule
3	–	–	–	–	–	–	–	–	–	Plexin-B1_(cyto) (entire cytoplasmic domain of human Plexin-B1, residues 1511-2135) (from UniProt O43157-1 1511-2135) (domain or fragment)
–	14.2	15.2	16.5	486	binds	22.9	binds	binds	binds	Rnd1 (residues 5-200) (enzyme, human, UniProt Q92730 5-200, looked up, human Rnd1, residues 5-200; source: E. coli BL21 Star, purified) RAPQPVVARCKLVLVGDVQCGKTAMLQVLAKDCYPETYVPTVFENYTACLETEEQRVELSLWDTSGSPYYDNVRPLCYSDSDAVLLCFDISRPETVDSALKKWRTEILDYCPSTRVLLIGCKTDLRTDLSTLMELSHQKQAPISYEQGCAIAKQLGAEIYLEGSAFTSEKSIHSIFRTASMLCLNKPSPLPQKSPV
